Experimental data from article PMC7117775, “CsIVP functions in vasculature development and downy mildew resistance in cucumber”.

Experiments:
[1] = target: T1, CsIVP (Irregular Vasculature Patterning, bHLH) (Cucumis sativus, UniProt A0A0A0KHS6 1-223); assay: EMSA; 80, 120, 160 fmol probe; cold competitor; LightShift Chemiluminescent EMSA Kit (Thermo 20148), manufacturer's instructions; buffer, salt, pH and temperature not stated; details: protein: recombinant; tags: pET-28a vector (Ni-NTA purified); chain copies: 2; label: 5' biotin on forward strand; blunt
T1 sequence: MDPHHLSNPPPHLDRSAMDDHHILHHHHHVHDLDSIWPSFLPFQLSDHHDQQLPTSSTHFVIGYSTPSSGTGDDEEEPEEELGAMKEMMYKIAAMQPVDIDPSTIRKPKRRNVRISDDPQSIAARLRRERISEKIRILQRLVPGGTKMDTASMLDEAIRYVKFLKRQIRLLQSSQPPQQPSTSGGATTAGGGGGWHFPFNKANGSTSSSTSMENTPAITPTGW

[2] = target: T1, CsIVP (Irregular Vasculature …); assay: EMSA; 80, 120, 160 fmol probe; LightShift Chemiluminescent EMSA Kit (Thermo 20148), manufacturer's instructions; buffer, salt, pH and temperature not stated; details: protein: recombinant; tags: pET-28a vector (Ni-NTA purified); chain copies: 2; label: 5' biotin on forward strand; blunt

B1: CsYAB5 promoter probe (-1626) (dsDNA)
DNA 1: TATAAAATTGTTTTAACCAATTGAGTTATATACATTCAA
DNA 2: TTGAATGTATATAACTCAATTGGTTAAAACAATTTTATA
B1: binds [1].

B2: CsCCR1 promoter probe (-1939) (dsDNA)
DNA 1: CAAAATTGACTTCTTCCACTTGTGCAGTCAAACAGTTC
DNA 2: GAACTGTTTGACTGCACAAGTGGAAGAAGTCAATTTTG
B2: no binding [2].

B3: CsBP promoter probe (-333) (dsDNA)
DNA 1: ACTTTAATGGCGCACCCTCAACTGAGATATCTATACCC
DNA 2: GGGTATAGATATCTCAGTTGAGGGTGCGCCATTAAAGT
B3: binds [1].

B4: CsAUX4 promoter probe (-1492) (dsDNA)
DNA 1: AGGGATGGAGGTGAGCACATGGGAGGGCCGCTGCC
DNA 2: GGCAGCGGCCCTCCCATGTGCTCACCTCCATCCCT
B4: binds [1].
